Test results: US20230365711A1 (Hoffmann-La Roche, published 2023)

Molecular target: T1, human carcinoembryonic antigen (CEA), membrane-bound on cells (human, UniProt P06731 35-685)
T1 construct: whole, on cells; also called CEACAM-5; CD66e
T1 sequence (looked up): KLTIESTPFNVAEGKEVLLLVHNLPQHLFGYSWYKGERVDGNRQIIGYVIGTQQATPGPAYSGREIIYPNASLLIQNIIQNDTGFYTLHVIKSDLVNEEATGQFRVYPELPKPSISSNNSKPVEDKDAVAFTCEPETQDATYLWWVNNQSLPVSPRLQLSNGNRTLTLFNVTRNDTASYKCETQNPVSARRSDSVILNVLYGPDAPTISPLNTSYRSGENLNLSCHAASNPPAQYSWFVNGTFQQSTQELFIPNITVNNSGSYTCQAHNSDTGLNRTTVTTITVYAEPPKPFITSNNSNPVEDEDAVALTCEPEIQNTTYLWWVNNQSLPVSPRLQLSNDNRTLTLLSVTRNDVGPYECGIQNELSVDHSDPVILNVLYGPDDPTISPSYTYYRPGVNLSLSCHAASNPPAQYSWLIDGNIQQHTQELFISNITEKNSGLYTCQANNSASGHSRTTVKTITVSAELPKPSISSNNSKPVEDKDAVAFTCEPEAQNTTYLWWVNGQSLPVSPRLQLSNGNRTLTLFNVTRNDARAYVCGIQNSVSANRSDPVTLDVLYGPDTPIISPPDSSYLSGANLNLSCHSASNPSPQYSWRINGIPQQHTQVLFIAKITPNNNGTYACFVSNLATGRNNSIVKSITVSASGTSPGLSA
Assay: FACS on MKN-45 cells
Procedure: CH1A1 includes the M69F/T71L double point mutation. The latter three variants have the entire frameworks 1, 2, or 3, respectively, replaced by the murine counterpart. […] In this assay, cell binding of the CH1A-based antibody variants to CEA-expressing MKN-45 cells was analyzed at various concentrations. The affinity-matured light chain 2F1 was identical for all antibodies tested except for the parental antibody where the original light chain CL1A was used. Mean fluorescence was determined by FACS analysis. […] The DLS assay was performed using 1 mg/ml of the antibodies in a buffer of 20 mM Histidine and 140 mM NaCl at pH 6.0. The assay was conducted starting at 25° C. with an incremental temperature increase of 0.05° C./min up to 70° C. All antibodies tested in this assay had 2F1 as the light chain

B1: anti-CEA antibody with heavy chain CH1A4 and light chain 2F1 (antibody, V domains shown)
VH: QVQLVQSGAEVKKPGASVKVSCKASGYTFTEFGMNWVRQAPGQGLEWMGWINTKTGEATYVEEFKGRFAFSLETSATTAYLQINNLKNEDTAKYFCARWDFYDYVEAMDYWGQGTTVTVSS
VL: DIQMTQSPSSLSASVGDRVTITCKASAAVGTYVAWYQQKPGKAPKLLIYSASYRKRGVPSRFSGSGSGTDFTLTISSLQPEDFATYYCHQYYTYPLFTFGQGTKLEIKR
- EC50 (read off the curve): ~0.8 µg/mL
